Test results reported in the DeepSol protein solubility set.

Test: soluble on expression in E. coli; label from the status in PepcDB or PDB records

Soluble on expression in E. coli, not soluble:
MGSDKIHHHHHHMNSTTKSKEFEQHYSGTLSDYVTAIAWSPQGKTLAATSAAGEVVLWNDGELTTLQTGNGKSVDCLAFSPDGKFLAVGGQDGQVKIWQNTELIATLENAPAWVDKLAWNYTSNQLAFSLGRYVQVWDVDTHEIVVTLNFDNSSVLGIDWRIDGQYLAISGYKGVKIWHSQNWDEEPYSLDMTTVSLAMAWSPDGKFLASGNMDRSVTVLEWNNPDPWVMRGFPGKIRQLAWSEAMTKVGAPILASSSVEGIVVWEKLEDDTLGWEARVLTNHVGTINAIAFAPKSFLLASAAADGWLCLWNQAKEVSQIITGVSGGFSTLAWHPQGKLLAAGGEQGELVIWSKVLRGQGFGRS
MSLDVLGHVFEYFLGEFALAEGKQGGQFYTPKCVVELLVTMLEPYKGRVFDPCCGSGGMFVQSEEFVKSHQGRLDDISIYGQESNQTTYKLAKMNLAIRKIESSQVIWNNEGSFLNDAHKDLKADFIIANPPFNDSDWSGELLENDGRWKYGVPPASNANYAWIQHFLYHLSPNGGVAGFVLAKGALTSNTTNEAAIRKALIEDDLIDCIVNLPAKLFLNTGIPASLWFIRRQKLPKTVKKTLFIDARDLGTRINRRNKTLNKDDINQIANIYKAWKNGTDYEDIKGFCKSVSIDEIRELSYVLTPGRYVGLADSDDEFDFDTRFNELLAKLKSQIKTEQELSEIILKNLEKIKEGHHHHHH
MGSDKIHHHHHHMQFCSSDEFASKTMIKWPWKVQESAHQTALPWQEALSIPLLTCLTEQEQSKLVTLAERFLQQKRLVPLQGFELDSLRSCRIALLFCLPVLELGLEWLDGFHEVLIYPAPFVVDDEWEDDIGLVHNQRIVQSGQSWQQGPIVLNWLDIQDSFDASGFNLIIHEVAHKLDTRNGDRASGVPFIPLREVAGWEHDLHAAMNNIQEEIELVGENAASIDAYAASDPAECFAVLSEYFFSAPELFAPRFPSLWQRFCQFYQQDPLQRLHHANDTDSFSATNVH
MTITQRDASSADAICLSALGMQVFLDTYATQGIRESIAREALDAFSPQAFAHLLAEPATLIIVAESQGHLIGFAQFALRTDHPMLGIPTAAELQRLYVQERFTGRGVGRLLLEAAEQRAAAGNATLLWATVWVGNPRALGVYPRQGYEVKGSPRYVFQGETHENCLFAKAIVKAVR
MGSDKIHHHHHHKEQNLDDFEQEYQNYQVNDPLSGYNKAMTSFNVALYDYGLRPVLKGYNAITPEFIRLGARNFFDNLLAPLRFVSNVLQFKFEEAGEEFKRFTANTIMGFGGLMDVASKMGLKKHPADLGTVLAHWGVGSGFHIVLPILGPSNLRDTLTLPATWYASFTAYIDPTWASIAISAYGFGNELSFRLDEIDEIYHNTPNLYPFLRDAYEQRRNELSK
QDSPNAIKAAVISSPMLGFYSGLLPKSIAKILVAIKLKFNNIISNTPWYFLGQKDYSPVNFTDNKLTHSIPRYQYFVDLYKKNKIIQLGGVTTHWLAQSIAAQKELFSKIVQLKTPILLLQASGDTVVCQQAQDDFCQQLHTLQPQSCPNGVPSNIDNAFHELFFETDDLRNKAITQSLAWFEQH
MAAKPGIPKGTRDFSPVEMAKRNYIFNTIRDVFHLFGYQQIETPSMENLSTLMGKYGDEGDKLLFKIQNSGDYFNGITDEELLSRNAVKLASKFCEKGLRYDLTVPFARYVVMHRDEISFPFKRYQIQPVWRADRPQKGRYREFYQCDADVVGSNSLLNEVELVQMIDRVFGKFGVRVSIKINNRKILTGIAEIIGEADKIVDITVAIDKLDKIGLENVNAELASKGIPQEAIDKLQPIILLSGSNEEKLETLKTVLATSEAGLKGVEESEFILKTVSALGVKSEVELDLTLARGLNYYTGAIFEVKALDVQIGSISGGGRYDNLTGVFGMDGMSGVGISFGADRIFDVLNQLDLYPKEAVNGTELLFVNFGDKEAAYCLPILTKVREAGVRAEIYPDASKMKKQMGYANDKQIPFVAIVGENEMNEGKLTLKNMTTGEQSLVTPDELLAVVKA
MAHHHHHHMPHAGNKLVPIGCNMNDAAYPFRGEHRLANCINHGHSGVVKRIPTSIAMRISGSNLVIEEVKTPKGVELECELGVDGGIARPVSLQQASAFMVPSDGHNYNLIAAVKASGNPMKHYCKLTFNGSEGITVLRMRAPEGCSPDAVYIVADGRRLRPTAGWFRIPIHTKECALVANLPLDDAPPPPPPPPPPPPPPPSFSFTATPPLPPAPSGGLAEKTLEATTGAPWTAENVPELETRIHPPLIPNAGAVTLTEPVPAAMPSFVATAPGFSLQLTGENGSSVFGVGVAALPLSHRRAQTVQIVVSDAQGRVLLRQRSHVPSLEPAAVSLAVKDDGKGGLALSANPGSKITVGGVPQADPSATAVLPRVVPQRAVVEQPNADGSVSKATLDVAPTSEPAPVSAAVSKQLPQQPQAPALPEAWVKELSDALQNSNPEEQRHLLQRIYPSSIPGVTIVNFVRDQLTRQPPAISFTVSSNGLEAVQCPGCSVTAAVGNDPARQIPAFGSVALASGKSALLTATSTVRHSAVSACRVQIGVPSAVAFTSPTVSAYPPHAAAGPPMQAGPSADERADSDVVSRLVDCLLRHNLSAPLVARELDSMSTAPFSAQGRRMLSLLTSCLRSATASGAAAAMQAASTQAAAITHAAPEEIFFTCGPGYVDNIYTTQPQYQLFGAVDNQAPQGGAAARPDTCAGYSRG
MGSDKIHHHHHHMSKKVVVTGANGYIGAHLIAELQKHSQHFQTIAVDIDDKYIPKGVTFVSMDLLNEARKETLYKECGEPDICVHLAWRDGFQHNALSHIDDLPCHFHFLKNLADHGTTHFAIAGSFREYGSVNGMVDQDAVVIPDNFYTLAKSMLKQALEIYFKEKNICLQWLRPFTVYGNDSRNNSIMSKIIRWEDEGKQSFPFTSGNEEYDYVSVYEVARQIAAVISQREVDGIIDCCTGKPTRLGDKIEGFIRENHFKIRPEYGAFPKREYDSSVIYGDNRKITEIIKKCILF
MGPYFGKVSEVSSNSQTTYLPESADATQVQEQLGDFTDSESIPAIVVMVSDEPLTQQDITQLNEVVAGLSELDIVSDEVSPAIPSEDGRAVQVFVPLNPSAELTESVEKLSETLTQQTPDYVSTYVTGPAGFTADLSALEHHHHHH
MKIVTFQGGLGNQLFQYVFYLWLDMRCDKDNIYGYYPKKGLRAHNGLEIEKVFEVKLPNSSLSTDLIVKSIKLINKIFKNRQYISTDGRLDVNGVLFEGFWQDKYFWEDVDIVLNFRWPLKLDVTNSFIMTKIQANNSISIHIRRGDYLLPKYRNIYGDICNEEYYQKAIEYILKCVDDPFFFVFSDDIDWAKSIINVSNVTFVNNNKGKDSYIDMFLMSLCHHNIIANSTFSWWAAQLNKHSDKIMIAPIRWFKSLFKDPNIFTESWIRILEHHHHHH
GPGSMVSRDSRYIHRRWYLEDATLTIQQPKLELLVDFDDPSSFAFPANLPPTLGMRRAAAVATATGGLSGVMGLGSEGNLLADWREIGIPPFTEE
MPAVQETIRQVREIDVDQYKYGFETKIKTDKAPKGLNEDIIRFISAKKCEPEWMLKWRLQAFRRWLTMQEPDWARIEYPKIDFQELHYYAAPKNHTGPKSLEEVDPELLATYEKLGIPLKEQEILAGVRKQSDPSTFDESVYASGQVAVDAVFDSVSVVTTFKKELARAGVIFCSISEAIIEHPALINQYLGTVVPVGDNYYAALNAAVFTDGSFVYIPKGVRCPMELSTYFRINERNTGQFERTLIIADEDSYVSYLEGCTAPQRDENQLHAAVVELVALKNAEIKYSTVQNWYPGDKEGNGGIYNFVTKRGDCRGDNSKISWTQIETGSAITWKYPSCLLRGDNSRGEFYSIAVANGHQQIDSGTKMIHLGKNTSSRIVSKGISAGFSNNTYRGQVTAHRKAHNARNFTQCDSLLIGNDCGAHTVPYIEAKNATAQFEHEATTSKISDDQLFYVMQRGIPEEEAIALIVNGFVKEVIQKLPMEFAVEAQKLIGISLEGSVG
SHLHPLHKNTTGYDLRHLFIGSEGTLGIITAATLKLFANPLDKATAWVGIPDIESAVRLLTETQAHFAERLCSFELIGRFAAELSSEFSKLPLPTHSEWHILLELTDSLPDSNLDDRLVEFLYKKGFTDSVLAQSEQERIHMWALRENISASQRKLGTSIKHDIAVPIGRVADFVRRCAKDLEQNFKGIQIVCFGHLGDGSLHYNTFLPEILSNEVYRYENDINSTVYRNVLACNGTIAAEHGIGIIKKQWLDKVRTPAEIALMKSIKQHLDPYNIMNPGKLLP
MELKYVIPNMEKTFGQLEYAGEGNIEQRRINGRPTILSRSYNLYSTIQRADDIVVILPSEAGEKHFESDEKVKLINPHITAEGYKIGNRGFTNYIMHADDMVKALEHHHHHH

Soluble on expression in E. coli, soluble:
MNMAHTTTSMEIFGSPEQVWQLIGGFNSLPDWLPYIPSSKLTEGGRVRHLANPDGDTIIERLEVFNDKERYYTYSIMNAPFPVTNYLSTIQVKEGTESNTSLVEWSGTFTPVEVSDEEAINLFHGIYSDGLKALQQAFLDLEHHHHHH
MRYLDAEAIENIATGAAFLGTGGGGDPYIGKMMALSAIEENGPVKLVSPEEIAAEDFFLPAAMMGAPSVAIEKFPKGDEFVRVFEKLGKYLDQETIAGTFPMEAGCVNSMIPIVVAAKLGIPLVDCDGMGRAFPELPMVTFHLNGMSATPMAITDEKGNIGIMETIDNTWTERLARVQTVEMGASALVSIYPATGKQLQDYGIHNIVTLSEEIGKVIRGTYADEQEKRQALVEVTDGFELFQGKILDVEREVKGGFNLGRVKLSGLNSDAGSEAVVHFQNENLIAEKDGQVIAMTPDLICMVDLETLTPVTTESLKYGKRVQVMGLKANAAWRTKKGIETVGPRYFGYEMDYQPLENLVAKEDKLEHHHHHH
GMREEKIREALNAHWQASAAGDFDAEHDIYDDDAICDYPQSGERILGRMNLQALRSHHPGKPAGFEVRRIQGEGNLWITEYSISYNGRPAYTVSIMEFRNGKVVHETQYFSDPFEAPGWRSQWVQQIG
MTAHFPFDNSYVALPPNFFARVAPTPVAAPRLIKLNRPLAVQLGLDPDLLETPEGAEILSGNQMPETAASIAMAYAGHQFGNFVPQLGDGRAILLGEVVDRNGVRRDIQLKGAGRTPFSRMGDGRAALGPVLREYIVSEAMAALGIPTTRSLAAVLTGETVLRDPIQPGAVLTRVASSHIRVGTFQYFAARGDLASVRALADHAIARHYPEAAQAPSPYLALLEGVIGRQAELVASWMMVGFIHGVMNTDNCSVAGETIDYGPCAFMDTFDPKTVYSSIDQFGRYAYGNQPPIALWNLTRLAECLVRLLADDDDKGIEIAQTALGGFAEQFNAAYLAKLAAKLGLFTSQPDDQQLSQEFLTALAKGEADFTLAFRRLSDAAVDPSDLGEVRALFADPAAFDEWAPRWRARIATEPQDATTRQAAMRRVNPAYIPRNHRIEAVIRAAVDRDDFAPFEEILTVLANPFEEKAEFARYAEPPQPHEQVLETFCGTAAALEHHHHHH
MKLKKIVFTLIALGLFSCKTTSVLVKNEPQLKTPKNVILLISDGAGLSQISSTFYFKSGTPNYTQFKNIGLIKTSSSREDVTDSASGATAFSCGIKTYNAAIGVADDSTAVKSIVEIAALNNIKTGVVATSSITDATPASFYAHALNRGLEEEIAMDMTESDLDFFAGGGLNYFTKRKDKKDVLAILKGNQFTINTTALTDFSSIASNRKMGFLLADEAMPTMEKGRGNFLSAATDLAIQFLSKDNSAFFIMSEGSQIDWGGHANNASYLISEINDFDDAIGTALAFAKKDGNTLVIVTSDHETGGFTLAAKKNKREDGSEYSDYTEIGPTFSTGGHSATLIPVFAYGPGSEEFIGIYENNEIFHKILKVTKWNQ
